Measured values as given in US20250064909A1 (MEDIMABBIO, published 2025).
Residue numbers refer to the chain shown, from its start.

T1: recombinant human TIGIT (Sino Biological) (human, UniProt Q495A1 22-138)
T1 construct: Bought protein; NP_776160.2; also called human TIGIT antigen; hTIGIT
T1 sequence: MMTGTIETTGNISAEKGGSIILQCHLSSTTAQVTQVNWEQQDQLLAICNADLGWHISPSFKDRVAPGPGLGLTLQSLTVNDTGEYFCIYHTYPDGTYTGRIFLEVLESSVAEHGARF

T2: recombinant human TIGIT (Acrobiosystems) (human, UniProt Q495A1 22-141)
T2 construct: Bought protein; also called hTIGIT; human TIGIT antigen
T2 sequence: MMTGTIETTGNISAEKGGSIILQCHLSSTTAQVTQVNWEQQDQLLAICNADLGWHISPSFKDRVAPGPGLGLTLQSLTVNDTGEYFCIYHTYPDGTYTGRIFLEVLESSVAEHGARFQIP

T3: TIGIT on cells (human primary T cells, PBMC, NK cells; Promega TIGIT effector cells) (human) (UniProt Q495A1)
T3 sequence: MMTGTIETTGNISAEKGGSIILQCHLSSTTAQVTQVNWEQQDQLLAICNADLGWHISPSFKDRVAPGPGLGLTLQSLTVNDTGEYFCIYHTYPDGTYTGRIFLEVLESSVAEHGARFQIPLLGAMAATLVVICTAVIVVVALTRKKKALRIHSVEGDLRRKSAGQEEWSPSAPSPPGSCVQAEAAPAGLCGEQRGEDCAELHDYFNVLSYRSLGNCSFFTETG

B1: 7A6 VH3/Vκ3 humanized antibody (human IgG1, kappa) (antibody, V domains shown)
VH: QVQLQESGPGLVKPSQTLSLTCTVTGYSITSDYAWNWIRQPPGKGLEWMGYISYSGSARYNPSLKSRVTISRDTSKNQFSLKLSSVTAEDTATYYCARKGYPAYFAYWGQGTLVTVSS
VL: DIQMTQSPSSLSASVGDRVSITCKASQDVSTAVAWYQQKPGQAPRLLIYSASYRYTGVPDRFSGSGSGTDFTLTISSLQAEDVAVYYCQHHYSTPYTFGQGTKLEIKR
notes: Tested as IgG in supernatant of transiently transfected HEK293 EBNA cells
B2: 7A6 VH1/Vκ1 humanized antibody (human IgG1, kappa) (antibody, V domains shown)
VH: B1 VH with Q1D, V68I, K76M, S84N
VL: B1 VL with Q3V, P8H, S10F, R45E, S63T, I106M
notes: as for B1
B3: 7A6 VH1/Vκ2 humanized antibody (human IgG1, kappa) (antibody, V domains shown)
VH: B1 VH with Q1D, V68I, K76M, S84N
VL: B1 VL with Q3V, S63T
notes: as for B1
B4: 7A6 VH1/Vκ3 humanized antibody (human IgG1, kappa) (antibody, V domains shown)
VH: B1 VH with Q1D, V68I, K76M, S84N
VL: B1 VL
notes: as for B1
B5: 7A6 VH1/Vκ4 humanized antibody (human IgG1, kappa) (antibody, V domains shown)
VH: B1 VH with Q1D, V68I, K76M, S84N
VL: B1 VL with S20T, K24R
notes: as for B1
B6: 7A6 VH1/Vκ5 humanized antibody (human IgG1, kappa) (antibody, V domains shown)
VH: B1 VH with Q1D, V68I, K76M, S84N
VL: B1 VL with A80P, V83F, V85T
notes: as for B1
B7: 7A6 VH2/Vκ1 humanized antibody (human IgG1, kappa) (antibody, V domains shown)
VH: B1 VH with Q1D, V68I
VL: B1 VL with Q3V, P8H, S10F, R45E, S63T, I106M
notes: as for B1
B8: 7A6 VH2/Vκ2 humanized antibody (human IgG1, kappa) (antibody, V domains shown)
VH: B1 VH with Q1D, V68I
VL: B1 VL with Q3V, S63T
notes: as for B1
B9: 7A6 VH2/Vκ3 humanized antibody (human IgG1, kappa) (antibody, V domains shown)
VH: B1 VH with Q1D, V68I
VL: B1 VL
notes: as for B1
B10: 7A6 VH2/Vκ4 humanized antibody (human IgG1, kappa) (antibody, V domains shown)
VH: B1 VH with Q1D, V68I
VL: B1 VL with S20T, K24R
notes: as for B1
B11: 7A6 VH2/Vκ5 humanized antibody (human IgG1, kappa) (antibody, V domains shown)
VH: B1 VH with Q1D, V68I
VL: B1 VL with A80P, V83F, V85T
notes: as for B1
B12: 7A6 VH3/Vκ1 humanized antibody (human IgG1, kappa) (antibody, V domains shown)
VH: B1 VH
VL: B1 VL with Q3V, P8H, S10F, R45E, S63T, I106M
notes: as for B1
B13: 7A6 VH3/Vκ2 humanized antibody (human IgG1, kappa) (antibody, V domains shown)
VH: B1 VH
VL: B1 VL with Q3V, S63T
notes: as for B1
B14: 7A6 VH3/Vκ4 humanized antibody (human IgG1, kappa) (antibody, V domains shown)
VH: B1 VH
VL: B1 VL with S20T, K24R
notes: as for B1
B15: 7A6 VH4/Vκ1 humanized antibody (human IgG1, kappa) (antibody, V domains shown)
VH: B1 VH with E89A, T93V
VL: B1 VL with Q3V, P8H, S10F, R45E, S63T, I106M
notes: as for B1
B16: 7A6 VH4/Vκ2 humanized antibody (human IgG1, kappa) (antibody, V domains shown)
VH: B1 VH with E89A, T93V
VL: B1 VL with Q3V, S63T
notes: as for B1
B17: 7A6 VH4/Vκ3 humanized antibody (human IgG1, kappa) (antibody, V domains shown)
VH: B1 VH with E89A, T93V
VL: B1 VL
notes: as for B1
B18: 7A6 VH4/Vκ4 humanized antibody (human IgG1, kappa) (antibody, V domains shown)
VH: B1 VH with E89A, T93V
VL: B1 VL with S20T, K24R
notes: also called 7A6 VH4/Vk4; 7A6VH4/Vk4
B19: 7A6 VH4/Vκ5 humanized antibody (human IgG1, kappa) (antibody, V domains shown)
VH: B1 VH with E89A, T93V
VL: B1 VL with A80P, V83F, V85T
notes: as for B1
B20: 7A6 VH5/Vκ1 humanized antibody (human IgG1, kappa) (antibody, V domains shown)
VH: B1 VH with R72V, E89A, T93V
VL: B1 VL with Q3V, P8H, S10F, R45E, S63T, I106M
notes: as for B1
B21: 7A6 VH5/Vκ2 humanized antibody (human IgG1, kappa) (antibody, V domains shown)
VH: B1 VH with R72V, E89A, T93V
VL: B1 VL with Q3V, S63T
notes: as for B1
B22: 7A6 VH5/Vκ3 humanized antibody (human IgG1, kappa) (antibody, V domains shown)
VH: B1 VH with R72V, E89A, T93V
VL: B1 VL
notes: as for B1
B23: 7A6 VH5/Vκ4 humanized antibody (human IgG1, kappa) (antibody, V domains shown)
VH: B1 VH with R72V, E89A, T93V
VL: B1 VL with S20T, K24R
notes: as for B1
B24: 7A6 VH5/Vκ5 humanized antibody (human IgG1, kappa) (antibody, V domains shown)
VH: B1 VH with R72V, E89A, T93V
VL: B1 VL with A80P, V83F, V85T
notes: as for B1
B25: 7A6 VH0/Vκ0 chimeric antibody (human IgG1, kappa) (antibody, V domains shown)
VH: DVQLQESGPGLVKPSQSLSLTCTVTGYSITSDYAWNWIRQFPGNKLEWMGYISYSGSARYNPSLKSRISITRDTSMNQFFLQLNSVTAEDTATYYCARKGYPAYFAYWGQGTLVTVSS
VL: DIVMTQSHKFMSTSVGDRVSISCKASQDVSTAVAWYQQKPGQSPELLIYSASYRYTGVPDRFTGSGSGTDFTFTISSVQAEDLAVYYCQHHYSTPYTFGGGTKLEMKR
notes: Mouse 7A6 variable regions on human IgG1/kappa constant regions; also called VH0/Vk0; 7A6 VH0Vk0
B26: TIG1 Arcus (antibody, from another filing, V domains shown)
VH: DVQLVESGGGLVQPGGSRKLSCAASGFTFSNFGMHWVRQAPEKGLEWVAFISSGSSSIYYADTVKGRFTISRDNPKNTLFLQMTSLRSEDTAMYYCARMRLDYYAMDYWGQGTSVTVSS
VL: DVQITQSPSYLAASPGETITINCRASKSISKYLAWYQEKPGKTNKLLIYSGSTLQSGIPSRFSGSGSGTDFTLTISSLEPEDFAMYYCQQHNEYPWTFGGGTKLEIK

These molecules were tested against T1, recombinant human TIGIT (Sino …) (assay: SPR single cycle kinetics; KD divided by KD of the VH0/Vκ0 chimeric antibody;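 also: biacore T200 SPR at 25 °C, IgG captured on anti-human chip, TIGIT analyte in four rising concentrations, 210 s association each, 900 s dissociation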).
Description: (§1) The kinetic test was conducted at 25° C. using the Biacore T200 running Biacore T200 Control software V2.0.1 and Evaluation software V3.0 (GE Healthcare, Uppsala, Sweden).
(§2) To reduce non-specific binding to the reference surface, HBS-P+ (GE Healthcare, Uppsala, Sweden) supplemented with 1% BSA w/v (Sigma, Dorset, UK) was used as the running buffer and was also used for dilution of ligand and analyte. The supernatant containing IgG was diluted in the running buffer to 1 μg/mL. At the beginning of each cycle, the antibody was loaded onto Fc2, Fc3, and Fc4 on the anti-human sensor chip (GE Healthcare, Little Chalfont, UK). […] Then, the surface was allowed to stabilize.
(§3) To minimize potential mass transfer effects, recombinant human TIGIT (from Sino Biological) was used as the analyte and injected at a flow rate of 40 μl/min to obtain Single cycle kinetic data. […] For each of the four increasing antigen concentrations, the association phases were monitored for 210 seconds, and after the last antigen injection, a single dissociation phase was measured for 900 seconds. The sensor chip surface was regenerated by a single injection of 3 M MgCl₂.

Row | Molecule | Relative KD
1 | B1 | 1.38
2 | B2 | 0.85
3 | B3 | 1.24
4 | B4 | 1.48
5 | B5 | 1.34
6 | B6 | 1.1
7 | B7 | 1.1
8 | B8 | 1.47
9 | B9 | 1.38
10 | B10 | 1.58
11 | B11 | 1.16
12 | B12 | 1.1
13 | B13 | 1.48
14 | B14 | 1.84
15 | B15 | 0.94
16 | B16 | 1.63
17 | B17 | 1.45
18 | B18 | 1.98
19 | B19 | 1.41
20 | B20 | 1.32
21 | B21 | 2.55
22 | B22 | 2.32
23 | B23 | 2.33
24 | B24 | 1.92
25 | B25 | 1

These molecules were tested against T2, recombinant human TIGIT (Acrobiosystems) (assay: SPR (Biacore T200), multi-cycle kinetics, purified IgG captured on anti-human IgG CM5 chip, TIGIT as analyte, 1:1 fit).
Description: Kinetic experiments were performed at 25° C. using a Biacore T200 operated with Control software V2.0.1 and Evaluation software V3.0 (GE Healthcare, Uppsala, Sweden).
HBS-P+ (GE Healthcare, Uppsala, Sweden) supplemented with 1% BSA w/v (Sigma, Dorset, UK) was used as the running buffer and was also used for dilution of ligands and analytes. The purified leading antibodies were diluted in the running buffer to a final concentration of 1 μg/mL, and at the initiation of each cycle, were loaded onto Fc2, Fc3, and Fc4 sites on the anti-human IgG CM5 sensor chip (GE Healthcare, Little Chalfont, UK). The antibodies were captured at a flow rate of 10 μl/min until a response level (RL) of ˜150 RU was achieved, followed by a stabilization period.
To minimize potential mass transfer effects, recombinant human TIGIT (Acrobiosystems, China) was introduced as the analyte at a flow rate of 50 μl/min to obtain multi-cycle kinetic data. […] For each concentration, association phases were monitored for 240 seconds, followed by 900 seconds of monitoring the dissociation phase. The sensor chip surface was regenerated between kinetic cycles by injecting 3M MgCl₂ twice. To ensure the stability of both the surface and the analyte across kinetic cycles, repetitive injections of blank and a single concentration of the analyte were programmed into the kinetic run.

Row | Molecule | Kd [nM] | koff [s⁻¹] | kon [M⁻¹ s⁻¹]
26 | B25 | 0.077 | 0.000176 | 2.28e+06

The molecules below were run against T3, TIGIT on cells (human primary T cells, PBMC, NK cells; Promega TIGIT effector cells) (human) (assay: not given).

Row | Molecule | EC50, NFAT reporter luminescence (TIGIT effector cells + CD155 aAPC/CHO-K1 cells; blocked ligand PVR/CD155) [µg/mL]
27 | MBSA43 control (antibody) | 1.24
28 | B26 | 3.74

Molecular target: T3, TIGIT on cells (human primary T cells, PBMC, NK cells; Promega TIGIT effector cells) (human)
Assay: not given
Remark: another data set of the same source

Row | Molecule | EC50 of the mixture with pembrolizumab (both antibodies at the same concentration), NFAT reporter luminescence (PD-1+TIGIT+ effector cells + PD-L1+CD155 aAPC/CHO-K1 cells) [µg/mL]
29 | B26 | 0.611

Molecular target: T3, TIGIT on cells (human primary T cells, PBMC, NK cells; Promega TIGIT effector cells) (human)
Assay: not given
Remark: another data set of the same source

Row | Molecule | EC50 of the mixture with nivolumab (both antibodies at the same concentration), NFAT reporter luminescence (PD-1+TIGIT+ effector cells + PD-L1+CD155 aAPC/CHO-K1 cells) [µg/mL]
30 | B26 | 0.923

What follows are molecules tested against T1, recombinant human TIGIT (Sino …) (assay: SPR (Biacore T200), single cycle kinetics, IgG from supernatant captured on anti-human chip, TIGIT as analyte, 1:1 fit;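 also: measured at 25 °C in HBS-P+ with 1% BSA, four ascending TIGIT concentrations, 210 s association per step, one final 900 s dissociation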).
Description: as §1, §2, §3

Row | Molecule | Kd [nM] | koff [s⁻¹] | kon [M⁻¹ s⁻¹]
31 | B1 | 0.903 | 0.0015 | 1.66e+06
32 | B2 | 0.554 | 0.00129 | 2.33e+06
33 | B3 | 0.811 | 0.00146 | 1.8e+06
34 | B4 | 0.963 | 0.00182 | 1.89e+06
35 | B5 | 0.876 | 0.00167 | 1.91e+06
36 | B6 | 0.717 | 0.00129 | 1.8e+06
37 | B7 | 0.715 | 0.00168 | 2.36e+06
38 | B8 | 0.961 | 0.00158 | 1.65e+06
39 | B9 | 0.897 | 0.00134 | 1.49e+06
40 | B10 | 1.03 | 0.00181 | 1.75e+06
41 | B11 | 0.754 | 0.0013 | 1.72e+06
42 | B12 | 0.715 | 0.00155 | 2.17e+06
43 | B13 | 0.963 | 0.00173 | 1.8e+06
44 | B14 | 1.2 | 0.00196 | 1.63e+06
45 | B15 | 0.616 | 0.00107 | 1.73e+06
46 | B16 | 1.06 | 0.00185 | 1.75e+06
47 | B17 | 0.944 | 0.00175 | 1.85e+06
48 | B18 | 1.29 | 0.00192 | 1.49e+06
49 | B19 | 0.922 | 0.00162 | 1.76e+06
50 | B20 | 0.858 | 0.00124 | 1.45e+06
51 | B21 | 1.66 | 0.00204 | 1.23e+06
52 | B22 | 1.51 | 0.00189 | 1.25e+06
53 | B23 | 1.52 | 0.00181 | 1.19e+06
54 | B24 | 1.25 | 0.0017 | 1.36e+06
55 | B25 | 0.652 | 0.0016 | 2.46e+06
